According to patent US20260070949A1 (NOVOZYMES A S, published 2026):

T1: deamidase inhibitor from Chryseobacterium sp-62563
T1 chain: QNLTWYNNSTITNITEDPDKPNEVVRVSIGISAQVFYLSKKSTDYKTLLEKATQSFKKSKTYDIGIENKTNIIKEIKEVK

T2: active deamidase from Chryseobacterium sp-62563 (Chryseobacterium sp-62563)
T2 construct: Protein-glutamine glutaminase (EC 3.5.1.44), called 'active deamidase'
T2 chain: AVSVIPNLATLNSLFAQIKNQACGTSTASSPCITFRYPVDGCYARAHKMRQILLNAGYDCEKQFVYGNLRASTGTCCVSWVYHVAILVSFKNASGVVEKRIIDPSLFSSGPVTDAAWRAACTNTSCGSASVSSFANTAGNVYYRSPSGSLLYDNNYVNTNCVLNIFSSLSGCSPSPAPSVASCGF


Assays:
[1] = molecular target: T1, deamidase inhibitor from …
[2] = molecular target: T2, active deamidase from Chryseobacterium …; assay: nanoDSF at 330 nm, Tm of the deamidase/inhibitor complex; active deamidase alone (SEQ ID NO: 4) gave 66.3° C.
Experimental: 60 μL sample was transferred in replicates to a black-bottomed 384 well plate, and the plate was briefly centrifugated to remove potential air bubbles.
The thermal unfolding temperature of the samples was analyzed using a Prometheus NT.Plex system from NanoTemper Technologies GmbH, with the following settings: [0305] (i) Temperature scan rate: 3.3° C. per minute; and [0306] (ii) Temperature scan interval: 20-95° C.
Using the nanoDSF procedure, as described in Example 2, the thermal unfolding temperature of an active deamidase and the corresponding deamidase/inhibitor complex was measured.

Row | NanoDSF thermal unfolding temperature [2] [° C.] | Binder | deamidase activity (% initial rate), fluorescence substrate FITC-PP-Dnp with glutamyl endopeptidase [1]
1 |  | active deamidase from Chryseobacterium sp-62563 (protein) AVSVIPNLATLNSLFAQIKNQACGTSTASSPCITFRYPVDGCYARAHKMRQILLNAGYDCEKQFVYGNLRASTGTCCVSWVYHVAILVSFKNASGVVEKRIIDPSLFSSGPVTDAAWRAACTNTSCGSASVSSFANTAGNVYYRSPSGSLLYDNNYVNTNCVLNIFSSLSGCSPSPAPSVASCGF | the deamidase activity (% initial rate) was significantly reduced
2 | 70.1 | deamidase inhibitor from Chryseobacterium sp-62563 (other) QNLTWYNNSTITNITEDPDKPNEVVRVSIGISAQVFYLSKKSTDYKTLLEKATQSFKKSKTYDIGIENKTNIIKEIKEVK | 
